Reference: patent US20150299314A1 (TORAY INDUSTRIES, published 2015)
Blank lines part the entries; values can stand above or below the binder they belong to.

How the values were obtained:
[1] = molecular target: T1, polypeptide set forth in SEQ ID NO: 430 (human); assay: ELISA on 93 immobilized synthetic peptides of human CAPRIN-1, purified antibody 0.1 ug/mL
T1 peptide: ATQVPLVSSTSEGYTA
Experimental: Candidate peptides (93 peptides) each consisting of 12 to 16 amino acids of the amino acid sequence of the human CAPRIN-1 protein were synthesized and were each dissolved at a concentration of 1 mg/mL in DMSO. Each peptide was dissolved at a concentration of 30 μg/mL in a 0.1 M sodium carbonate buffer (pH 9.6). The solution was added to a 96-well plate (manufactured by Nunc, Product No. 436006) at 100 μL per well, followed by being left to stand at 4° C. overnight. The solution was removed, and 200 μL of 10 mM ethanolamine/0.1 M sodium carbonate buffer (pH 9.6) was added to each well, followed by being left to stand at room temperature for 1 hour. The solution was removed, and each well was washed with PBS containing 0.5% Tween 20 (PBST) twice to prepare a peptide-immobilized plate. For confirmation, this plate was also provided with a well to which the CAPRIN-1 protein was immobilized in accordance with the method described above. Rabbit anti-CAPRIN-1 monoclonal antibody #1 purified to a concentration of 0.1 ug/mL by a usual method was added to the plate at an amount of 50 μL per well, followed by shaking at room temperature for 1 hour. The solution was removed, and each well was washed with PBST three times. […] The absorbance was measured at 450 nm and 595 nm with an absorption spectrometer. […]

[2] = molecular target: T1, polypeptide set forth in SEQ ID NO: 430; assay: ELISA as in Example 13(1), purified antibody
[3] = molecular target: T2, CAPRIN-1 protein expressed on the cell surface of human cancer cells (human, UniProt Q14444 2-709); assay: cell-based or functional assay
T2 sequence (looked up): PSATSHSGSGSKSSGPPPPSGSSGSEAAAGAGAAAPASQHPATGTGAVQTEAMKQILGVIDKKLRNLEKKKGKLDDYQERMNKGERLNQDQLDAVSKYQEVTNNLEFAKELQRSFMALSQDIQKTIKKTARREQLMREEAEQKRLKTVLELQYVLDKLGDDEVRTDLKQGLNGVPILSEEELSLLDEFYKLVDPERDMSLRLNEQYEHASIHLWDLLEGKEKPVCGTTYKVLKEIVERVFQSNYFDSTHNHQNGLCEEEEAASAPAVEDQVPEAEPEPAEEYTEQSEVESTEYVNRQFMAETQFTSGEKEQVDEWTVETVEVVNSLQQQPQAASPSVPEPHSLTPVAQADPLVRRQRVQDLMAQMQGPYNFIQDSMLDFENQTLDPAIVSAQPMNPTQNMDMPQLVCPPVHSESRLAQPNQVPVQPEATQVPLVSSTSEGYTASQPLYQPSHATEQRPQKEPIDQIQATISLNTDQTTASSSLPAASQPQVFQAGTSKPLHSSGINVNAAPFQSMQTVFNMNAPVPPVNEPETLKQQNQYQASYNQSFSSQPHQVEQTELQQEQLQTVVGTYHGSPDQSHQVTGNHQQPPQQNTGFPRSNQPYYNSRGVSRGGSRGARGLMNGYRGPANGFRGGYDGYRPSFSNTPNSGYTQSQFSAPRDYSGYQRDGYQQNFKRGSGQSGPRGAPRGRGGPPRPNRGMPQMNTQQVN

[4] = molecular target: T3, peptide set forth in SEQ ID NO: 268 (human); assay: ELISA on immobilized synthetic CAPRIN-1 peptides, culture supernatant
T3 peptide: FTSGEKEQVDEW

[5] = molecular target: T4, polypeptide set forth in SEQ ID NO: 266 (human); assay: as above
T4 construct: Identified from ELISA on 93 synthetic peptides of 12 to 16 amino acids of human CAPRIN-1
T4 peptide: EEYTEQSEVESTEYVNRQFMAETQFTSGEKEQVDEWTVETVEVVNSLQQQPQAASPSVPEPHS

[6] = molecular target: T2, CAPRIN-1 protein expressed on the cell …; assay: flow cytometry, TGBC14TKB cells, culture supernatant, isotype control antibody as control

binding result [1]: binds
B1: rabbit anti-CAPRIN-1 monoclonal antibody #1 (antibody, V domains shown)
VH: QSLEESGGDLVKPGASLTLTCTASGFSFSGSYYMSWVRQAPGKGLEWIAYIYIGDGVTAYANWAKGRFTISKASSTTVTLQMTSLTAADTATYFCARGNKLWGPGTLVTVSS
VL: DVVMTQTPASVEAAVGGTVTIKCQASQSISSYLAWYQQKPGQPPKRLIYDASNLDSGVPSRFKGSGSGTDFTITISDLECADAATYYCQCTAVSSATIYGNAFGGGTEVVVK
notes: rabbit hybridoma antibody

binding result [2]: binds
B2: human-rabbit chimeric anti-CAPRIN-1 antibody #1 (antibody, V domains shown)
VH: QSLEESGGDLVKPGASLTLTCTASGFSFSGSYYMSWVRQAPGKGLEWIAYIYIGDGVTAYANWAKGRFTISKASSTTVTLQMTSLTAADTATYFCARGNKLWGPGTLVTVSS
VL: DVVMTQTPASVEAAVGGTVTIKCQASQSISSYLAWYQQKPGQPPKRLIYDASNLDSGVPSRFKGSGSGTDFTITISDLECADAATYYCQCTAVSSATIYGNAFGGGTEVVVK
notes: also called human-rabbit chimeric anti-CAPRIN-1 monoclonal antibody #1

binding result [4]: binds | binding result [5]: binds | rate of increase in mean fluorescence intensity over control [6]: ≥ 20%
B3: mouse monoclonal antibody #5 (antibody, V domains shown)
VH: DAELVKPGASVKISCKASGYTFTDHSIHWVQQKPEQGLEWIGYISPGNGNIKYNEKFKGKATLTADKSSSTAYMQLNSLTSEDSAVYFCKRSLGRGGPYYFDYWGQGTTVTVSS
VL: DIVLTQAAPSLPVTPGESVSISCRSSKSLLHSNGNTYLYWFLQRPGQSPQLLIYRMSNLASGVPDRFSGSGSGTAFTLRISRVEAEDVGVYYCMQHREYPVTFGSGPN
notes: mouse hybridoma antibody; also called anti-CAPRIN-1 mouse monoclonal antibody #5; anti-CAPRIN-1 monoclonal antibody #5
cytotoxicity (ADCC, 51Cr release) on TGBC14TKB, human NK cells [3]: ≥ 15%
